# Test results published in patent US20240425589A1, “CYTOTOXICITY-INDUCING THERAPEUTIC AGENT FOR USE IN TREATMENT OF CANCER” (CHUGAI SEIYAKU KABUSHIKI KAISHA, priority 2021, published 2024).
# B1: PPU4135: anti-CLDN6/Dual-Fab tri-specific antibody, chains SEQ ID NOs 42, 51, 56, 69; CS4135 same antibody (protein)
# chain 1: QVQLVESGGGVVQPGGSLRLSCAASGFTFSSYTMSWVRQAPGQGLEWMGTISSGGGRTYYPDSVKGRFTISRDNSKNTLYLQMNSLRDEDTAVYYCARGDYRYDGFAYWGEGTLVTVSSASTKGPSVFPLAPSSKSTSGGTAALGCLVEDYFPEPVTVSWNSGALTSGVHTFPAVLESSGLYSLSSVVTVPSSSLGTQTYICNVNHKPSNTKVDKRVEPKSCDKTHTCPPCPAPEAAGGPSVFLFPPKPKDTLMISRTPEVTCVVVDVSHEDPEVKFNWYVDGVEVHNAKTKPREEQYASTYRVVSVLTVLHQDWLNGKEYKCKVSNKALPAPIEKTISKAKGQPREPQVYTLPPSREEMTKNQVSLTCLVKGFYPSDIAVEWESNGQPENNYKTTPPVLDSDGSFFLYSKLTVDKSRWQQGNVFSCSVMHEALHNHYTQESLSLSP
# chain 2: DIQMTQSPSSLSASVGDRVTITCRASYNIDSYLAWYQQKPGKAPELLIYYSTLLVDGVPDRFSGSRSGTDFTLTISSLQPEDFATYYCQHYYSIPYTFGQGTKVEIERTVAAPSVFIFPPSDEQLKSGTAKVVCLLNNFYPREAKVQWKVDNALQSGNSKESVTEQDSKDSTYSLSSTLTLSKADYEKHKVYACEVTHQGLSSPVTKSFNRGEC
# chain 3: QVQLVESGGGLVQPGRSLRLSCAASGFKFSNVWFHWVRQAPGKGLEWVAQIKDYYNAYAAYYAPSVKGRFTISRDDSKNSIYLQMNSLKTEDTAVYYCHYVHYASASTLLPAEGVDAWGQGTTVTVSSASTKGPSVFPLAPSSKSTSGGTAALGCLVKDYFPEPVTVSWNSGALTSGVHTFPAVLKSSGLYSLSSVVTVPSSSLGTQTYICNVNHKPSNTKVDKRVEPKSCDKTHTCPPCPAPEAAGGPSVFLFPPKPKDTLMISRTPEVTCVVVDVSHEDPEVKFNWYVDGVEVHNAKTKPREEQYASTYRVVSVLTVLHQDWLNGKEYKCKVSNKALPAPIEKTISKAKGQPREPQVYTLPPSRKEMTKNQVSLTCLVKGFYPSDIAVEWESNGQPENNYKTTPPVLDSDGSFFLYSKLTVDKSRWQQGNVFSCSVMHEALHNHYTQKSLSLSP
# chain 4: DIVMTQSPLSLPVTPGEPASISCQPSQEVVHMNRNTYLHWYQQKPGQAPRLLIYKVSNRFPGVPDRFSGSGSGTDFTLKISRVEAEDVGVYYCAQGTSHPFTFGQGTKLEIKRTVAAPSVFIFPPSDEQLKSGTAEVVCLLNNFYPREAKVQWKVDNALQSGNSEESVTEQDSKDSTYSLSSTLTLSKADYEKHKVYACEVTHQGLSSPVTKSFNRGEC
# Tested on: NIH:OVCAR-3
# Assay: OVCAR3 xenograft in huNOG mice, combination with irinotecan hydrochloride
# Assay type: in vivo
# Settings: 60 days after transplantation; CS4135 0.1 mg/kg, irinotecan hydrochloride 25 mg/kg, iv days 39, 46
# Description: In this test, NOG(huNOG) mice (described in the aforementioned Example 13) transplanted with ovarian cancer cell line NIH:OVCAR-3 (OVCAR3, ATCC) and human CD34-positive cells were used. The OVCAR3 cell line was transplanted subcutaneously to the right flank of the mice, and the mice were divided into groups 39 days after transplantation. Individuals whose tumor volume reached 160 to 263 mm^3 were divided into groups. Vehicle 1 and CS4135 were administered into the mouse tail vein 39 and 46 days after transplantation. PBS containing 0.05% Tween-20 was used as Vehicle 1. Vehicle 2 and irinotecan hydrochloride (Sawai Pharmaceutical Co., Ltd.) were administered into the mouse tail vein 39 and 46 days after transplantation. Physiological saline was used as Vehicle 2.
# Tumor volume was measured 39, 42, 46, 49, 53, 57, and 60 days after transplantation, and the average tumor volume is indicated for each group. The tumor volume was calculated by the following equation: […]
# Tumor Growth Inhibition (TGI) was calculated by the following equation: […]
molecule,measurement,value
B1,Tumor growth inhibition: TGI,−2%
